# From the supplement of paper PMC10567573
# B1: PPFIA4 (parent)
# chain: YAGNLHESGVHGALLALDENFDHN
# B2: ATE1 (parent)
# chain: DYFPSEDFYRCGYCKNESGSRSNG
# Variants of: B1
# Test: protein stability index of a GFP-peptide fusion (GPS, HEK-293T) (PSI 1-6); higher = more stable
# Details: c terminus: a fixed tail appended
# 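Further: lentivirally expressed fusions sorted by FACS into six bins by GFP to DsRed ratio, PSI derived from sequencing read proportions per bin multiplied by bin number.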
row,Variant,protein stability index
1,A2E,4.19
2,A2F,3.84
3,A2C,2.38
4,A2D,4.38
5,Y1D,4.8
6,Y1I,3.86
7,Y1F,2.04
8,Y1N,4.81
9,Y1P,5.39
10,Y1T,4.26
11,Y1S,5.03
12,Y1E,5.05
13,Y1A,4.8
14,Y1K,4.5
15,Y1H,4.95
16,Y1C,3.94
17,Y1M,4.81
18,Y1Q,4.64
19,Y1L,4.49
20,Y1W,3.77
21,Y1G,5.06
22,Y1R,3.7
23,Y1V,4.85

# Variants of: B2
# Test: as above
# Details: c terminus: a fixed tail appended
row,Variant,protein stability index
1,R10T,2.2
2,R10Y,2.99
3,R10V,3.04
4,R10F,1.98
5,R10A,2.71
6,R10D,2.31
7,R10L,1.69
8,R10E,2.6
9,R10H,1.82
10,R10M,2.21
11,R10K,2.44
12,R10W,2.33
13,R10S,2.2
14,R10G,2.35
15,R10C,1.43
16,R10P,2.47
17,R10I,1.88
18,R21Q,2.67
19,R21V,2.5
20,R21S,2.22
21,R21M,2.08
22,R21C,2.83
23,R21N,2.47
24,R21D,3.09

row,Variant,protein stability index
1,R21T,2.24
2,R21K,2.61
3,R21W,2.03
4,R21H,2.19
5,R21P,2.69
6,R21L,1.58
7,R21E,2.44
8,R21F,2.39
9,R21Y,1.79
10,R21A,2.54
11,R21I,1.79
12,R21G,2.79
13,D7T,2.15
14,D7W,1.7
15,D7P,2.71
16,D7Y,2.85
17,D7Q,3.11
18,D7S,2.24
19,D7R,1.93
20,C14A,4.24
21,C14P,3.53
22,C14L,3.28
23,C14E,4.6
24,C14W,3.43

row,Variant,protein stability index
1,C14N,3.4
2,C14H,4.16
3,C14M,4.25
4,C14D,4.47
5,C14Q,3.69
6,C14S,3.94
7,C14T,4.36
8,C14G,3.81
9,C14V,4.1
10,C14R,3.8
11,C14F,3.44
12,C14I,3.97
13,C14Y,3.04
14,C14K,3.65
15,S18V,2.17
16,S18L,1.84
17,S18E,2.53
18,S18H,1.95
19,S18N,1.35
20,S18F,3.12
21,S18I,1.53
22,S18A,2.67
23,S18W,2.05
24,S18Q,2.37

row,Variant,protein stability index
1,S18Y,1.69
2,S18R,1.68
3,S18T,2.07
4,S18M,1.24
5,S18P,2.2
6,S18C,1.08
7,S18K,2.33
8,G12C,2.01
9,G12A,3.25
10,G12I,2.84
11,G12V,2.4
12,G12D,3.03
13,G12F,3.18
14,G12T,2.99
15,G12K,2.68
16,G12R,4.05
17,G12Q,2.64
18,G12P,1.93
19,G12N,2.69
20,G12W,3.35
21,G12M,2.77
22,G12E,3.04
23,G12Y,2.49
24,G12L,2.63

row,Variant,protein stability index
1,G12S,3.15
2,G19P,2.57
3,G19E,2.52
4,G19L,2
5,G19T,2.04
6,G19W,3.29
7,G19S,2.15
8,G19K,1.95
9,G19M,1.38
10,G19Q,2.9
11,G19V,2.14
12,G19A,1.61
13,G19F,1.56
14,G19R,1.76
15,G19D,2.45
16,G19I,2.65
17,G19C,1.93
18,G19N,1.84
19,G19Y,1.6
20,G19H,2.03
21,F8L,2.19
22,F8H,2.19
23,F8N,2.16
24,F8Y,1.93

row,Variant,protein stability index
1,F8M,2.56
2,F8A,2.32
3,F8P,3
4,F8D,2.44
5,F8G,2.48
6,F8K,2.49
7,F8E,3.77
8,F8I,2.35
9,F8C,2.54
10,F8Q,2.81
11,F8T,2.63
12,F8R,2.91
13,F8V,3.1
14,Y13A,2.76
15,Y13G,3.4
16,Y13P,3.75
17,Y13E,4.41
18,Y13M,3.8
19,Y13H,3.21
20,Y13T,3.93
21,Y13Q,3.52
22,Y13K,3.5
23,Y13L,2.03
24,Y13N,3.83

row,Variant,protein stability index
1,Y13I,2.91
2,Y13C,2.18
3,Y13S,3.69
4,Y13F,2.4
5,Y13W,3.73
6,Y13R,2.23
7,N23W,2.6
8,N23M,1.52
9,N23D,2.1
10,N23L,2.65
11,N23K,2.51
12,N23F,1.26
13,N23P,1.91
14,N23V,1.25
15,N23H,2.16
16,N23Q,2.53
17,N23S,2.32
18,N23T,2.1
19,N23C,1.28
20,N23E,2.29
21,N23R,1.76
22,N23I,1.52
23,C11Q,4.36
24,C11S,3.54

row,Variant,protein stability index
1,C11W,4.12
2,C11M,4.12
3,C11E,4.92
4,C11K,4.17
5,C11D,4.21
6,C11F,3.46
7,C11Y,3.42
8,C11V,3.73
9,C11I,3.83
10,C11A,3.73
11,C11P,4.15
12,C11L,2.96
13,C11N,3.84
14,C11T,4.55
15,C11R,3.9
16,C11H,4.4
17,C11G,4.36
18,Y9N,2.18
19,Y9F,1.92
20,Y9T,2.98
21,Y9I,1.88
22,Y9M,2.69
23,Y9P,2.57
24,Y9A,2.99

row,Variant,protein stability index
1,Y9H,1.82
2,Y9D,2.42
3,Y9Q,2.14
4,Y9W,2.46
5,Y9C,3.12
6,Y9E,2.43
7,Y9L,2.01
8,Y9K,2.37
9,Y9V,2.21
10,Y9S,2.36
11,N16T,1.97
12,N16C,1.47
13,N16W,1.41
14,N16P,2.23
15,N16Y,2.43
16,N16D,2.79
17,N16Q,1.77
18,N16F,1.62
19,N16V,1.74
20,N16I,1.74
21,N16L,1.53
22,N16H,2
23,N16R,2.1
24,N16A,3.01

row,Variant,protein stability index
1,N16M,2.62
2,S22T,1.82
3,S22H,2.01
4,S22W,2.33
5,S22V,2.12
6,S22N,2.07
7,S22F,1.58
8,S22G,2.04
9,S22D,2.6
10,S22M,3.37
11,S22P,2.46
12,S22C,2.17
13,S22A,1.85
14,S22L,1.57
15,S22I,2.54
16,S22R,1.68
17,S22E,2.52
18,S22Q,2.6
19,S22Y,2.42
20,S22K,2.02
21,E17C,1.63
22,E17N,2
23,E17D,2.44
24,E17G,1.96

row,Variant,protein stability index
1,E17W,1.78
2,E17F,1.71
3,E17S,1.83
4,E17R,2.78
5,E17H,2.14
6,E17P,1.37
7,E17I,1.38
8,E17L,2.17
9,E17T,2.77
10,E17M,2.45
11,E17Y,1.49
12,E17V,1.4
13,E17K,2.33
14,E17A,1.74
15,E17Q,1.9
16,K15T,1.85
17,K15V,2.18
18,K15Y,2.89
19,K15I,2.18
20,K15M,3.08
21,K15C,2.17
22,K15P,3.41
23,K15E,2.46
24,K15N,2.28

row,Variant,protein stability index
1,K15F,2.65
2,K15W,2.25
3,K15Q,2.65
4,K15A,1.59
5,K15S,2.42
6,K15D,2.74
7,K15H,1.64
8,K15L,1.82
9,K15R,1.17
10,K15G,1.95
11,G24N,2.09
12,G24D,2.26
13,G24H,2.04
14,G24P,3
15,G24C,1.93
16,G24A,1.88
17,G24V,1.75
18,G24E,2.67
19,G24W,1.78
20,G24T,2.35
21,G24R,2.5
22,G24S,1.62
23,G24M,1.89
24,G24K,2.83

row,Variant,protein stability index
1,G24Y,2.13
2,G24Q,1.93
3,G24F,1.92
4,G24L,2.15
5,G24I,2.34
6,S20D,2.25
7,S20C,1.86
8,S20K,2.36
9,S20P,2.36
10,S20Q,1.94
11,S20A,2.83
12,S20Y,1.75
13,S20I,2.01
14,S20L,1.33
15,S20G,2.53
16,S20R,2.07
17,S20E,2.5
18,S20F,1.72
19,S20M,2.51
20,S20V,2.25
21,S20H,2.1
22,S20N,1.79
23,S20T,1.88
